PMC4982705 (Biochemical pharmacology, 2016)

Target: the molecule itself
Test: SEC

B1: wildtype human SULT1B1 (enzyme)
chain: not shown
With B1 the “stoichiometry N” value was 2.
